This experiment deals with human angiotensin-converting enzyme 2 (ACE2) (human) (UniProt Q9BYF1). Nature of the experiment: FRET or BRET.
Sequence of human angiotensin-converting enzyme 2 (ACE2) (human) (Q9BYF1 18-740): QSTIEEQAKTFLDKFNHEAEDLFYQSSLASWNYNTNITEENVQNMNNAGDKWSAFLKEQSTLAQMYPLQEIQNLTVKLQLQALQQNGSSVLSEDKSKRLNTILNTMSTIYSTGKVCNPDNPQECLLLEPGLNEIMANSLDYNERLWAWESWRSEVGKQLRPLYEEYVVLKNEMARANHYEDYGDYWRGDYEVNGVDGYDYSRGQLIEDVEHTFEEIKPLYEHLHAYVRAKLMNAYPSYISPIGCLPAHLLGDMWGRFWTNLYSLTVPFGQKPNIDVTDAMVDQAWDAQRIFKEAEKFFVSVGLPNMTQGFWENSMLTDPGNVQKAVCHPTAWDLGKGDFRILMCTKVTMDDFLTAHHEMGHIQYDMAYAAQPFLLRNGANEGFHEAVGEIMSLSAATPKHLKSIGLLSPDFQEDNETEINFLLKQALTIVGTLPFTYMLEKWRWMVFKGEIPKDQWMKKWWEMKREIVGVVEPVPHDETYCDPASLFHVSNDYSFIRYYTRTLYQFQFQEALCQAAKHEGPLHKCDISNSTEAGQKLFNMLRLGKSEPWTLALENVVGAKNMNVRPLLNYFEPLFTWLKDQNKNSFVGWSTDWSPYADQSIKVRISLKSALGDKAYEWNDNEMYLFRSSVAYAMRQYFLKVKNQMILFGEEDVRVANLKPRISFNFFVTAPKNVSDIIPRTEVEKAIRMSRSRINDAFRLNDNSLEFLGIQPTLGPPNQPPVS

The substance “SARS-CoV receptor-binding domain (RBD) (from UniProt P59594) (domain or fragment)” displayed a reduction in complex formation (FRET of SARS-CoV-2 RBD with ACE2) of 70%.

Values taken from paper PMC8126837.
